# Test results from patent publication US20090149339A1 (published 2009).
# Ends that are not written are not given here. * marks the point of attachment. Biotin = O=C1N[C@H]2[C@H](CS[C@H]2CCCCC(=O)*)N1
# Target: T1, GST-NeDLG PDZ domain fusion protein (presynaptic protein sao102, neuroendocrine-dlg; PDZ domains 1-2 of 3) (UniProt P08515 1-218 = GST)
# T1 construct: also called NeDLG1
# Assay: G assay
# T1 sequence (P08515 1-218, tags or fused parts left off): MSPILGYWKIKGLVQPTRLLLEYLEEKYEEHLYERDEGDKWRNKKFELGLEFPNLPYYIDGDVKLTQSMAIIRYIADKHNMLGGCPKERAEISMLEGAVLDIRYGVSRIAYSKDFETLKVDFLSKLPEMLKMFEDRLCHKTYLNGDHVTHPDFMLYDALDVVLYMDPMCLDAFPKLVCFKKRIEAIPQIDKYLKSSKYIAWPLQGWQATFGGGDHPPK
row,Binder,binding result
1,"Biotin-ISKATPALPTVSISSSAEV (also called AA1L-R) [CLASP-1 C-terminal PL peptide AA1L, biotinylated]",binds
2,"Biotin-QATSRNGHSARQHVVADTEL [CD34 C-terminal PL peptide AA7L, biotinylated]",binds

# Target: GST-PSD95 PDZ domain fusion protein (human post-synaptic density protein 95 AA387-724; PDZ domains 1-3 of 3) (human, UniProt P08515 1-218 = GST)
# Sequence (P08515 1-218, tags or fused parts left off): as the sequence (P08515 1-218, tags or fused parts left off) above
# Assay: A assay
row,Binder,binding result
1,"Biotin-ISKATPALPTVSISSSAEV (also called AA1L-R) [CLASP-1 C-terminal PL peptide AA1L, biotinylated]",binds
2,"Biotin-QATSRNGHSARQHVVADTEL [CD34 C-terminal PL peptide AA7L, biotinylated]",binds

# Target: GST-AF6 PDZ domain fusion protein (af-6 protein AA985-1077; PDZ domain 1 of 1) (UniProt P08515 1-218 = GST)
# Assay: A/G assays
row,Binder,binding result
1,"Biotin-ISKATPALPTVSISSSAEV (also called AA1L-R) [CLASP-1 C-terminal PL peptide AA1L, biotinylated]",no binding
2,"Biotin-QATSRNGHSARQHVVADTEL [CD34 C-terminal PL peptide AA7L, biotinylated]",no binding

# Target: GST-prIL16 PDZ domain fusion protein (putative interleukin 16 precursor AA170-383; PDZ domains 1-2 of 2) (UniProt P08515 1-218 = GST)
# Sequence (P08515 1-218, tags or fused parts left off): as the sequence (P08515 1-218, tags or fused parts left off) above
# Assay: A/G assays
row,Binder,binding result
1,"Biotin-ISKATPALPTVSISSSAEV (also called AA1L-R) [CLASP-1 C-terminal PL peptide AA1L, biotinylated]",no binding
2,"Biotin-QATSRNGHSARQHVVADTEL [CD34 C-terminal PL peptide AA7L, biotinylated]",no binding

# Target: T2, GST-KIAA0316 PDZ domain fusion protein (KIAA0316 AA197-284; PDZ domain 1 of 1) (UniProt P08515 1-218 = GST)
# T2 construct: also called K316
# Assay: A/G assays
row,Binder,binding result
1,"Biotin-ISKATPALPTVSISSSAEV (also called AA1L-R) [CLASP-1 C-terminal PL peptide AA1L, biotinylated]",no binding
2,"Biotin-QATSRNGHSARQHVVADTEL [CD34 C-terminal PL peptide AA7L, biotinylated]",no binding

# Target: T3, GST-TAX40 PDZ domain fusion protein (human tax interaction protein 40 AA35-137; PDZ domain 1 of 1) (human, UniProt P08515 1-218 = GST)
# T3 construct: also called TX 40
# T3 sequence (P08515 1-218, tags or fused parts left off): as the sequence (P08515 1-218, tags or fused parts left off) above
# Assay: A/G assays
row,Binder,binding result
1,"Biotin-ISKATPALPTVSISSSAEV (also called AA1L-R) [CLASP-1 C-terminal PL peptide AA1L, biotinylated]",no binding
2,"Biotin-QATSRNGHSARQHVVADTEL [CD34 C-terminal PL peptide AA7L, biotinylated]",no binding

# Target: GST-LIM PDZ domain fusion protein (Human LIM protein AA29-112; PDZ domain 1 of 1) (human, UniProt P08515 1-218 = GST)
# Sequence (P08515 1-218, tags or fused parts left off): as the sequence (P08515 1-218, tags or fused parts left off) above
# Assay: A/G assays
row,Binder,binding result
1,"Biotin-ISKATPALPTVSISSSAEV (also called AA1L-R) [CLASP-1 C-terminal PL peptide AA1L, biotinylated]",no binding
2,"Biotin-QATSRNGHSARQHVVADTEL [CD34 C-terminal PL peptide AA7L, biotinylated]",no binding

# Target: T4, GST-TAX43 PDZ domain fusion protein (human tax interaction protein 43 AA15-85; PDZ domain 1 of 1) (human, UniProt P08515 1-218 = GST)
# T4 construct: also called TX 43
# T4 sequence (P08515 1-218, tags or fused parts left off): as the sequence (P08515 1-218, tags or fused parts left off) above
# Assay: A/G assays
row,Binder,binding result
1,"Biotin-ISKATPALPTVSISSSAEV (also called AA1L-R) [CLASP-1 C-terminal PL peptide AA1L, biotinylated]",no binding
2,"Biotin-QATSRNGHSARQHVVADTEL [CD34 C-terminal PL peptide AA7L, biotinylated]",no binding

# Target: GST-LIMK2 PDZ domain fusion protein (human LIM domain kinase 2 AA185-275; PDZ domain 1 of 1) (human, UniProt P08515 1-218 = GST)
# Sequence (P08515 1-218, tags or fused parts left off): as the sequence (P08515 1-218, tags or fused parts left off) above
# Assay: A/G assays
row,Binder,binding result
1,"Biotin-ISKATPALPTVSISSSAEV (also called AA1L-R) [CLASP-1 C-terminal PL peptide AA1L, biotinylated]",no binding
2,"Biotin-QATSRNGHSARQHVVADTEL [CD34 C-terminal PL peptide AA7L, biotinylated]",no binding

# Target: T5, GST-CBP PDZ domain fusion protein (Cytohesin binding protein HE AA85-175; PDZ domain 1 of 1) (UniProt P08515 1-218 = GST)
# T5 construct: also called Prot
# T5 sequence (P08515 1-218, tags or fused parts left off): as the sequence (P08515 1-218, tags or fused parts left off) above
# Assay: A/G assays
row,Binder,binding result
1,"Biotin-ISKATPALPTVSISSSAEV (also called AA1L-R) [CLASP-1 C-terminal PL peptide AA1L, biotinylated]",no binding
2,"Biotin-QATSRNGHSARQHVVADTEL [CD34 C-terminal PL peptide AA7L, biotinylated]",no binding

# Target: GST-MINT3 PDZ domain fusion protein (human MINT3 AA11-52; PDZ domain 1 of 1) (human, UniProt P08515 1-218 = GST)
# Sequence (P08515 1-218, tags or fused parts left off): as the sequence (P08515 1-218, tags or fused parts left off) above
# Assay: A/G assays
row,Binder,binding result
1,"Biotin-ISKATPALPTVSISSSAEV (also called AA1L-R) [CLASP-1 C-terminal PL peptide AA1L, biotinylated]",no binding
2,"Biotin-QATSRNGHSARQHVVADTEL [CD34 C-terminal PL peptide AA7L, biotinylated]",no binding

# Target: T6, GST-MPP2 PDZ domain fusion protein (maguk p55 subfamily member 2 (DLG2) AA185-273; PDZ domain 1 of 1) (UniProt P08515 1-218 = GST)
# T6 construct: also called MMP2
# T6 sequence (P08515 1-218, tags or fused parts left off): as the sequence (P08515 1-218, tags or fused parts left off) above
# Assay: A/G assays
row,Binder,binding result
1,"Biotin-ISKATPALPTVSISSSAEV (also called AA1L-R) [CLASP-1 C-terminal PL peptide AA1L, biotinylated]",no binding
2,"Biotin-QATSRNGHSARQHVVADTEL [CD34 C-terminal PL peptide AA7L, biotinylated]",no binding

# Target: GST-MPP1 PDZ domain fusion protein (55 Kd erythrocyte membrane protein AA101-186; PDZ domain 1 of 1) (UniProt P08515 1-218 = GST)
# Sequence (P08515 1-218, tags or fused parts left off): as the sequence (P08515 1-218, tags or fused parts left off) above
# Assay: A/G assays
row,Binder,binding result
1,"Biotin-ISKATPALPTVSISSSAEV (also called AA1L-R) [CLASP-1 C-terminal PL peptide AA1L, biotinylated]",no binding
2,"Biotin-QATSRNGHSARQHVVADTEL [CD34 C-terminal PL peptide AA7L, biotinylated]",no binding

# Target: T7, GST-TAX2 PDZ domain fusion protein (human tax interaction protein 2 AA54-140; PDZ domain 1 of 1) (human, UniProt P08515 1-218 = GST)
# T7 construct: also called TX 2
# T7 sequence (P08515 1-218, tags or fused parts left off): as the sequence (P08515 1-218, tags or fused parts left off) above
# Assay: A/G assays
row,Binder,binding result
1,"Biotin-ISKATPALPTVSISSSAEV (also called AA1L-R) [CLASP-1 C-terminal PL peptide AA1L, biotinylated]",no binding
2,"Biotin-QATSRNGHSARQHVVADTEL [CD34 C-terminal PL peptide AA7L, biotinylated]",no binding

# Target: T8, GST-KIAA0303 PDZ domain fusion protein (KIAA0303 AA652-742; PDZ domain 1 of 1) (UniProt P08515 1-218 = GST)
# T8 construct: also called K303
# T8 sequence (P08515 1-218, tags or fused parts left off): as the sequence (P08515 1-218, tags or fused parts left off) above
# Assay: A/G assays
row,Binder,binding result
1,"Biotin-ISKATPALPTVSISSSAEV (also called AA1L-R) [CLASP-1 C-terminal PL peptide AA1L, biotinylated]",no binding
2,"Biotin-QATSRNGHSARQHVVADTEL [CD34 C-terminal PL peptide AA7L, biotinylated]",no binding

# Target: GST-DVL1 PDZ domain fusion protein (human dishevelled segment polarity protein homolog AA248-340); PDZ domain … (human, UniProt P08515 1-218 = GST)
# Assay: A/G assays
row,Binder,binding result
1,"Biotin-ISKATPALPTVSISSSAEV (also called AA1L-R) [CLASP-1 C-terminal PL peptide AA1L, biotinylated]",no binding
2,"Biotin-QATSRNGHSARQHVVADTEL [CD34 C-terminal PL peptide AA7L, biotinylated]",no binding

# Target: GST-NOS1 PDZ domain fusion protein (human neuronal nitric oxide synthase; PDZ domain 1 of 1) (human, UniProt P08515 1-218 = GST)
# Assay: A/G assays
row,Binder,binding result
1,"Biotin-ISKATPALPTVSISSSAEV (also called AA1L-R) [CLASP-1 C-terminal PL peptide AA1L, biotinylated]",no binding
2,"Biotin-QATSRNGHSARQHVVADTEL [CD34 C-terminal PL peptide AA7L, biotinylated]",no binding

# Target: T9, GST-41.8 kD PDZ domain fusion protein (hypothetical 41.8 kD protein AA4-85; PDZ domain 1 of 1) (UniProt P08515 1-218 = GST)
# T9 construct: also called hypoth
# T9 sequence (P08515 1-218, tags or fused parts left off): as the sequence (P08515 1-218, tags or fused parts left off) above
# Assay: A/G assays
row,Binder,binding result
1,"Biotin-ISKATPALPTVSISSSAEV (also called AA1L-R) [CLASP-1 C-terminal PL peptide AA1L, biotinylated]",no binding
2,"Biotin-QATSRNGHSARQHVVADTEL [CD34 C-terminal PL peptide AA7L, biotinylated]",no binding

# Target: T10, GST-TAX33 PDZ domain fusion protein (tax interaction protein 33 AA73-162; PDZ domain 1 of 1) (UniProt P08515 1-218 = GST)
# T10 construct: also called TX33
# T10 sequence (P08515 1-218, tags or fused parts left off): as the sequence (P08515 1-218, tags or fused parts left off) above
# Assay: A/G assays
row,Binder,binding result
1,"Biotin-ISKATPALPTVSISSSAEV (also called AA1L-R) [CLASP-1 C-terminal PL peptide AA1L, biotinylated]",no binding
2,"Biotin-QATSRNGHSARQHVVADTEL [CD34 C-terminal PL peptide AA7L, biotinylated]",no binding

# Target: T11, GST-CASK PDZ domain fusion protein (CASK AA495-584; PDZ domain 1 of 1) (mouse, UniProt P08515 1-218 = GST)
# T11 construct: also called mCASK
# T11 sequence (P08515 1-218, tags or fused parts left off): as the sequence (P08515 1-218, tags or fused parts left off) above
# Assay: A/G assays
row,Binder,binding result
1,"Biotin-ISKATPALPTVSISSSAEV (also called AA1L-R) [CLASP-1 C-terminal PL peptide AA1L, biotinylated]",no binding
2,"Biotin-QATSRNGHSARQHVVADTEL [CD34 C-terminal PL peptide AA7L, biotinylated]",no binding

# Target: T12, GST-SYN1a PDZ domain fusion protein (alpha1-syntrophin AA96-189; PDZ domain 1 of 1) (UniProt P08515 1-218 = GST)
# T12 construct: also called SYN 1 alpha; SYNTR 1 alpha
# T12 sequence (P08515 1-218, tags or fused parts left off): as the sequence (P08515 1-218, tags or fused parts left off) above
# Assay: A/G assays
row,Binder,binding result
1,"Biotin-ISKATPALPTVSISSSAEV (also called AA1L-R) [CLASP-1 C-terminal PL peptide AA1L, biotinylated]",no binding
2,"Biotin-QATSRNGHSARQHVVADTEL [CD34 C-terminal PL peptide AA7L, biotinylated]",no binding

# Target: T13, GST-KIAA0559 PDZ domain fusion protein (KIAA0559 AA766-870; PDZ1 of 1) (UniProt P08515 1-218 = GST)
# T13 construct: also called K559
# T13 sequence (P08515 1-218, tags or fused parts left off): as the sequence (P08515 1-218, tags or fused parts left off) above
# Assay: A/G assays
row,Binder,binding result
1,"Biotin-ISKATPALPTVSISSSAEV (also called AA1L-R) [CLASP-1 C-terminal PL peptide AA1L, biotinylated]",no binding
2,"Biotin-QATSRNGHSARQHVVADTEL [CD34 C-terminal PL peptide AA7L, biotinylated]",no binding

# Target: GST-PTN-4 PDZ domain fusion protein (protein-tyrosine phosphatase meg1 AA774-862; PDZ domain 1 of 1) (UniProt P08515 1-218 = GST)
# Sequence (P08515 1-218, tags or fused parts left off): as the sequence (P08515 1-218, tags or fused parts left off) above
# Assay: A/G assays
row,Binder,binding result
1,"Biotin-ISKATPALPTVSISSSAEV (also called AA1L-R) [CLASP-1 C-terminal PL peptide AA1L, biotinylated]",no binding
2,"Biotin-QATSRNGHSARQHVVADTEL [CD34 C-terminal PL peptide AA7L, biotinylated]",no binding

# Target: T14, GST-RGS12 PDZ domain fusion protein (human regulator of G-protein signalling 12 AA35-103; PDZ domain 1 of 1) (human, UniProt P08515 1-218 = GST)
# T14 construct: also called RSG12
# T14 sequence (P08515 1-218, tags or fused parts left off): as the sequence (P08515 1-218, tags or fused parts left off) above
# Assay: A/G assays
row,Binder,binding result
1,"Biotin-ISKATPALPTVSISSSAEV (also called AA1L-R) [CLASP-1 C-terminal PL peptide AA1L, biotinylated]",no binding
2,"Biotin-QATSRNGHSARQHVVADTEL [CD34 C-terminal PL peptide AA7L, biotinylated]",no binding

# Target: GST-TIAM1 PDZ domain fusion protein (T-lymphoma invasion and metastasis inducing protein 1 AA1001-1088); PDZ 1 … (UniProt P08515 1-218 = GST)
# Sequence (P08515 1-218, tags or fused parts left off): as the sequence (P08515 1-218, tags or fused parts left off) above
# Assay: A/G assays
row,Binder,binding result
1,"Biotin-ISKATPALPTVSISSSAEV (also called AA1L-R) [CLASP-1 C-terminal PL peptide AA1L, biotinylated]",no binding
2,"Biotin-QATSRNGHSARQHVVADTEL [CD34 C-terminal PL peptide AA7L, biotinylated]",no binding
